Among the data in patent publication USRE40831 are Kd values, retold here.

This assay has as its target hepatitis B virus surface antigen, ad antigen (Chemicon Cat. No. AG 850) (hepatitis B virus). The assay can be described thus: competitive ELISA. (In general: An ELISA detects its analyte on a solid surface through an enzyme-linked reagent.)

B1: Ab19.79.5, human monoclonal antibody secreted by hybridoma cell line 19.79.5 (ECACC Accession No. 96052168) (antibody, human IgG1, V domains shown)
VH: QVQLVESGGGVVQPGGSLRLSCAPSGFVFRSYGMHWVRQTPGKGLEWVSLIWHDGSNRFYADSVKGRFTISRDNSKNTLYLQMNSLRAEDTAMYFCARERLIAAPAAFDLWGQGTLVTVSS
VL: SYVLTQPPSVSVAPGKTARISCGGNNIGTKNVHWYQQKPGQAPVLVVYADSDRPSGIPERFSGSNSGNTATLTISRVEVGDEADYYCQVWDSVSYHVVFGGGTTLTVLG
Usually Kd stands for the constant that tells how readily two partners part at equilibrium. Low values mean higher affinity, high ones lower affinity. Consider B1, for which the Kd was 1.3 nM. In other words, the single-digit nanomolar range.
